One molecule from patent US20210340208A1 (ANWITA BIOSCIENCES, published 2021) can be followed below.

For one assay, the target named is T1, IL-2Rα-Fc fusion protein (human, UniProt P01589 22-240).
T1 construct: also called human IL-2Rα (CD25); CD25; not shown: Fc part and any linker are not described; captured on an anti-human IgG Fc sensor
T1 sequence: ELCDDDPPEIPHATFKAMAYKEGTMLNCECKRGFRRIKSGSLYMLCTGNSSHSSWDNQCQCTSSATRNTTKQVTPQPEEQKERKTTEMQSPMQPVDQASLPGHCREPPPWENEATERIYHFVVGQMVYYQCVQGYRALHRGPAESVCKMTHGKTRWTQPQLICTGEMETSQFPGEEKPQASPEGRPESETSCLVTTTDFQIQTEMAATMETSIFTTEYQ
Kind of assay: BLI (Octet RED96), IL-2Rα-Fc on AHC biosensor. On the procedure:
OCTET® RED96 was used to characterize the interactions of a wild-type hIL-2 and hIL-2 muteins with a human IL-2Rα (CD25). Briefly, an IL-2Rα-Fc fusion protein was loaded onto an anti-human IgG Fc capture (AHC) biosensor. The biosensor was then dipped into a solution containing a wild-type hIL-2 (WT IL-2) or an IL-2 mutein at various concentrations. Primary experimental data was analyzed with global fitting to determine a binding affinity (Kd).
For orientation: In BLI a coated tip is dipped into the sample, and binding shifts an interference pattern.

For assay [1], the target named is T2, IL-2Rα, β, and γ chains on preactivated human CD3 T-cells (human, UniProt P01589 22-272; P14784 27-551; P31785 23-369).
T2 sequence (looked up) 1: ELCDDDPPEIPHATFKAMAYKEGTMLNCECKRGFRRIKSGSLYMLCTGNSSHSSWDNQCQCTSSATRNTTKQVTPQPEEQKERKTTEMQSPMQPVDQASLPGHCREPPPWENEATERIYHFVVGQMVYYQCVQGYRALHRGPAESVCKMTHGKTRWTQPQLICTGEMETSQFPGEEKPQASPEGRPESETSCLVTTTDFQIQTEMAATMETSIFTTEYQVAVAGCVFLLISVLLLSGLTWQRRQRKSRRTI
T2 sequence (looked up) 2: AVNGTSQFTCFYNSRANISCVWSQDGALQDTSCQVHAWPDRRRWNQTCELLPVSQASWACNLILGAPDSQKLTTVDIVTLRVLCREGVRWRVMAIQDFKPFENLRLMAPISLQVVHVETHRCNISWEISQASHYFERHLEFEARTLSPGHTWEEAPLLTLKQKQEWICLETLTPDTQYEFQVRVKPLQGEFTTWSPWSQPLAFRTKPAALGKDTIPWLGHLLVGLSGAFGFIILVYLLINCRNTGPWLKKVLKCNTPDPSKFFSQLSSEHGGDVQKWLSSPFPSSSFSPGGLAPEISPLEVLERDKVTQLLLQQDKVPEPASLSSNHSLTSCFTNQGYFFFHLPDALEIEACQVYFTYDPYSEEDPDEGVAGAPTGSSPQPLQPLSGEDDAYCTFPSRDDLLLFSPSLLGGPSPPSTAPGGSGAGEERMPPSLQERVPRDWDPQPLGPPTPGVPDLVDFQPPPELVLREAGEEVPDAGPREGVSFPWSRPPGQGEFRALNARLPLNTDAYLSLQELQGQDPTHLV
T2 sequence (looked up) 3: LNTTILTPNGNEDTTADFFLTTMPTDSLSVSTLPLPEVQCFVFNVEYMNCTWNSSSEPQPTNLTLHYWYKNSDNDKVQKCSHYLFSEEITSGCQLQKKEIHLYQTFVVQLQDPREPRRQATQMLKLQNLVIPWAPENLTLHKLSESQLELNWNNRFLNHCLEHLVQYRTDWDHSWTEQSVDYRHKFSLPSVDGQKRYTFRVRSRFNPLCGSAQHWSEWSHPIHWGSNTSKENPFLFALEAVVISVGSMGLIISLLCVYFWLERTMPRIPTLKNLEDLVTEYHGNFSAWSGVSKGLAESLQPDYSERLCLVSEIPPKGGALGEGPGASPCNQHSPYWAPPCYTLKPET
Kind of assay: cell-based or functional assay.

B1: hIL-2-anti-HSA A37 (ligand)
chain: APTSSSTKKTQLQLEHLLLDLQMILNGINNYENPKLTRMLTAKFYMPKKATELKHLQCLEEELKPLEEVLNLAQSKNFHLRPRDLISNINVIVLELKGSETTFMCEYADETATIVEFLNRWITFSQSIISTLTGSGGSGGSGGSGEVQLVESGGGLVQPGGSLRLSCAASGSTWSINTLAWYRQAPGKQRDLVARISSGGSTYYADSVKGRFTISRDNSKNTLYLQMNSLRAEDTAVYYCYAQSTWYPPSWGQGTLVTVSS
notes: fused to anti-HSA VHH; also called IL2 mutein (K32E, F42A, C125S)
Take B1: in the assay with IL-2Rα-Fc fusion protein, the binding result is “no binding”. The “EC50 of STAT5 phosphorylation (phospho-STAT5 Tyr694 HTRF)” value in assay [1] turned out to be 0.92 nM.
